Drawing on EP4549938A1, this text covers signal score for 1 molecule.

For the assay, the target named is No. 1 APOA2-like protein (vasculitis-associated apolipoprotein A2, VAP2) (human). The assay can be described thus: Western blot band score with VasSF, COVID-19 patient sera at hospital admission (Fig. 4). A general note: A western blot detects proteins with antibodies after separation by electrophoresis.

B1: VasSF, single chain variable region fragment (ScFv) (scFv, V domains shown)
VH: QVHLVESGGGLVQPGRSLRLSCAVSGFTFASYAMHWVRQAPGKGLEWVAGISKDGSNKRHADSLEGRFTISRDNSKNTLYLQVSGLRAEDTAVYYCARSQDPTDFDWLLSEHWGQGTLVTVSS
For the molecule B1, the signal score was 4 /2 µL serum.
